The target in one test is HLA-B*15:02. Briefly: IEDB peptide-MHC binding, purified MHC/competitive/fluorescence; filed as Kd, often an IC50 or EC50 that approximates it; ≥ and ≤ were set here for values at or beyond the usual limits of such assays.
The target in a further test is HLA-B*27:05. The description is as above.
For the next test, the target named is HLA-B*35:01. The description is as above.
In another test the target is HLA-B*39:01. The description is as above. The note with it: source organism: Zaire ebolavirus.
The target of the next test is HLA-A*26:01. The test is described as above. The note with it: source organism: Zaire ebolavirus.
The target of the next test is HLA-B*51:01. Described as above. The note with it: source organism: Zaire ebolavirus.
The target of the next test is HLA-B*57:01. The description is as above.
The target in the next test is HLA-B*46:01. Described as above. To be noted: source organism: Zaire ebolavirus.
For another test, the target named is HLA-A*02:01. Described as above. To be noted: source organism: Zaire ebolavirus.
The next test deals with HLA-A*69:01. Described as above. The note with it: source organism: Zaire ebolavirus.
In test [1] the target is HLA-A*02:03. Briefly: IEDB peptide-MHC binding, purified MHC/direct/fluorescence; filed as Kd, often an IC50 or EC50 that approximates it; ≥ and ≤ were set here for values at or beyond the usual limits of such assays. The note with it: source organism: Ebola virus Yambio0403.
Another test deals with HLA-C*14:02. The description is as above.
Another test deals with HLA-A*02:16. The description is as above. The note with it: source organism: Ebola virus Yambio0403.
Another test has as its target HLA-A*02:12. The test is described as above. The note with it: source organism: Ebola virus Yambio0403.
The target of another test is HLA-A*02:19. The description is as above. The note with it: source organism: Ebola virus Yambio0403.
Test [2] concerns the target HLA-A*03:01. Described as above. The note with it: source organism: Ebola virus Yambio0403.
A further test has as its target HLA-A*68:02. The description is as above. The note with it: source organism: Ebola virus Yambio0403.
The next test addresses HLA-B*08:01. Described as above.
For the next test, the target named is HLA-C*03:03. The test is described as above.
A further test has as its target HLA-C*15:02. Described as above. The note with it: source organism: Mycobacterium tuberculosis H37Ra.
A further test addresses HLA-C*12:03. Described as above.
The target of a further test is HLA-B*58:01. Briefly: IEDB peptide-MHC binding, purified MHC/competitive/fluorescence; filed as Kd, often an IC50 or EC50 that approximates it; ≥ and ≤ were set here for values at or beyond the usual limits of such assays.
A further test addresses HLA-B*14:02. The test is described as follows: IEDB peptide-MHC binding, purified MHC/competitive/fluorescence; ≥ and ≤ were set here for values at or beyond the usual limits of such assays. The note with it: source organism: Human immunodeficiency virus 1.
For a further test, the target named is HLA-A*02:06. Briefly: IEDB peptide-MHC binding, purified MHC/competitive/fluorescence; filed as Kd, often an IC50 or EC50 that approximates it; ≥ and ≤ were set here for values at or beyond the usual limits of such assays. To be noted: source organism: Human immunodeficiency virus 1.
A further test deals with HLA-A*26:02. Described as above. The note with it: source organism: Human immunodeficiency virus 1.
The next test deals with HLA-A*30:01. Described as above. To be noted: source organism: Human immunodeficiency virus 1.
The target of test [3] is HLA-A*02:03. Described as above. The note with it: source organism: Human immunodeficiency virus 1.
The next test has as its target HLA-B*18:01. The description is as above. The note with it: source organism: Human immunodeficiency virus 1.
The next test deals with HLA-B*15:17. The test is described as above. To be noted: source organism: Human immunodeficiency virus 1.
Another test concerns the target HLA-B*15:01. The test is described as above.
Another test addresses HLA-A*11:01. Described as above. To be noted: source organism: Human immunodeficiency virus 1.
The next test has as its target HLA-A*01:01. The test is described as above.
In a further test the target is HLA-A*24:02. Described as above. The note with it: source organism: Entamoeba histolytica HM-1:IMSS.
A further test addresses HLA-C*07:02. Briefly: IEDB peptide-MHC binding, purified MHC/direct/fluorescence; filed as Kd, often an IC50 or EC50 that approximates it; ≥ and ≤ were set here for values at or beyond the usual limits of such assays.
The target in test [4] is HLA-A*03:01. Briefly: IEDB peptide-MHC binding, purified MHC/competitive/fluorescence; filed as Kd, often an IC50 or EC50 that approximates it; ≥ and ≤ were set here for values at or beyond the usual limits of such assays. To be noted: source organism: Escherichia coli O139:H28 str. E24377A.
In the next test the target is HLA-B*07:02. Described as above. To be noted: source organism: Influenza A virus (A/duck/Bavaria/1/1977(H1N1)).
Another test deals with HLA-C*05:01. The test is described as follows: IEDB peptide-MHC binding, purified MHC/direct/fluorescence; filed as Kd, often an IC50 or EC50 that approximates it; ≥ and ≤ were set here for values at or beyond the usual limits of such assays. The note with it: source organism: Influenza A virus (A/duck/Bavaria/1/1977(H1N1)).
The mark [5] stands for this setting: source organism: Zaire ebolavirus.
[6] abbreviates: source organism: Entamoeba histolytica HM-1:IMSS.
Setting [7] is: source organism: Mycobacterium tuberculosis H37Ra.
[8] abbreviates: source organism: Shigella boydii CDC 3083-94.
The mark [9] stands for this setting: source organism: Human immunodeficiency virus 1.
Setting [10] is: source organism: Escherichia coli O139:H28 str. E24377A.
[11] abbreviates: source organism: Yellow fever virus.

These results are taken from the Immune Epitope Database (IEDB).

Turning to ELYPGDSAH, the Kd – broadly, the constant that tells how readily two partners part at equilibrium – in the test with HLA-B*15:02 (source organism: Clostridium botulinum A str. ATCC 3502) was 615 nM.
In the case of FRYEFTAPF, the dissociation constant Kd was 724 nM with HLA-B*27:05 (setting [5]); 952 nM with HLA-B*35:01 (setting [5]); 0.7 nM in the test with HLA-B*39:01; no less than 20000 nM with HLA-A*26:01; no less than 20000 nM in the test with HLA-B*51:01; no less than 20000 nM with HLA-B*57:01 (setting [5]). The Kd with HLA-B*46:01 was no less than 20000 nM; with HLA-A*02:01, no less than 20000 nM; with HLA-A*69:01, no less than 20000 nM; with HLA-A*02:03 [1], no less than 20000 nM; with HLA-C*14:02 (setting [5]), 209 nM; with HLA-A*02:16 it was no less than 20000 nM. Also, the dissociation constant Kd was no less than 20000 nM in the test with HLA-A*02:12; no less than 20000 nM with HLA-A*02:19; no less than 20000 nM with HLA-A*03:01 [2]; no less than 20000 nM in the test with HLA-A*68:02; 6570 nM with HLA-B*08:01 (setting [5]).
In the test with HLA-B*15:02 (setting [6]), ILLFPLPSF had a Kd of 2060 nM.
IMYNYPAML: the figures for the dissociation constant Kd in the test with HLA-C*03:03 (source organism: Mycobacterium leprae) and with HLA-B*08:01 (source organism: Mycobacterium tuberculosis) were 45 nM and 2680 nM, respectively.
For the sequence KAAGAAVAL, the figures for the Kd in the test with HLA-C*03:03 (setting [7]), with HLA-C*15:02 and with HLA-C*12:03 (setting [7]) were 2 nM, 1770 nM and 76 nM, respectively.
With KAWSEGLAM, the Kd worked out at 0.2 nM with HLA-B*35:01 (setting [8]) and 458 nM in the test with HLA-B*58:01 (setting [8]).
In the case of KHYMLKHL, the IC50 (commonly the concentration that inhibits the measured activity by half) with HLA-B*14:02 was no less than 20000 nM.
Take KSLFNTIAVLY: the dissociation constant (Kd) came out at 206 nM with HLA-A*02:06; 1110 nM with HLA-A*26:02; 1350 nM in the test with HLA-A*30:01; 566 nM in the test with HLA-A*02:03 [3]; 260 nM in the test with HLA-B*18:01; 1010 nM with HLA-B*35:01 (setting [9]). Also, the Kd worked out at 21.3 nM in the test with HLA-B*15:17; 1200 nM with HLA-B*15:01 (setting [9]); 1920 nM with HLA-A*11:01; 190 nM in the test with HLA-B*57:01 (setting [9]); 2130 nM with HLA-A*01:01 (setting [9]).
Turning to KYNSHHFTF, the Kd is no more than 0.1 nM with HLA-A*24:02, 80 nM with HLA-C*14:02 (setting [6]) and 2 nM with HLA-C*07:02 (setting [6]).
Take LANWCLLNY: the dissociation constant Kd with HLA-B*35:01 (setting [10]) is 4.6 nM; with HLA-B*15:01 (setting [10]), 2380 nM; in the test with HLA-A*03:01 [4] it was no less than 20000 nM; in the test with HLA-B*58:01 (setting [10]), 104 nM; with HLA-A*01:01 (setting [10]) it was 1670 nM.
For the sequence LPFQNIHPI, the Kd was 104 nM with HLA-B*07:02, no less than 20000 nM in the test with HLA-C*07:02 (source organism: Influenza A virus (A/duck/Bavaria/1/1977(H1N1))) and no less than 20000 nM in the test with HLA-C*05:01.
As to NLYGWHLPL, the Kd with HLA-B*15:02 (source organism: Escherichia coli APEC O1) is 9.5 nM.
For TQHFGWHAF, the dissociation constant Kd with HLA-B*15:02 (source organism: Vibrio antiquarius) came out at 21.4 nM. That is a double-digit nanomolar value.
VAIDRPAEV: the equilibrium dissociation constant (Kd) was 2 nM with HLA-C*03:03 (setting [11]) and no more than 1 nM with HLA-C*12:03 (setting [11]).
Sequence YRWVNLASF returned a dissociation constant (Kd) in the test with HLA-B*27:05 (source organism: Mammarenavirus juninense) of 98.1 nM.
